Data from article PMC12207459, “A self-assembling surface layer flattens the cytokinetic furrow to aid cell division in an archaeon” (Proceedings of the National Academy of Sciences of the …, 2025).

Target: the molecule itself
Experiment: cryo-EM imaging of cells; unlabeled purified S-layer proteins added to live Vps4 E209Q ΔslaA cells, 75 °C, 1 h; lattice seen on the cell surface by cryo-EM

B1: purified SlaA from wild-type S. acidocaldarius, unlabeled (natural protein, Sulfolobus acidocaldarius, UniProt Q4J6E5 25-1424, looked up)
chain: ITTTALTPPVSAGGIQAYLLTGSGAPASGLVLFVVNVSNIQVSSSNVTNVISTVVSNIQINAKTENAQTGATTGSVTVRFPTSGYNAYYDSVDKVVFVVVSFLYPYTTTSVNIPLSYLSKYLPGLLTAQPYDETGAQVTSVSSTPFGSLIDTSTGQQILGTNPVLTSYNSYTTQANTNMQEGVVSGTLTSFTLGGQSFSGSTVPVILYAPFIFSNSPYQAGLYNPMQVNGNLGSLSSEAYYHPVIWGRALINTTLIDTYASGSVPFTFQLNYSVPGPLTINMAQLAWIASINNLPTSFTYLSYKFSNGYESFLGIISNSTQLTAGALTINPSGNFTINGKKFYVYLLVVGSTNSTTPVEYVTKLVVEYPSSTNFLPQGVTVTTSSNKYTLPVYEIGGPAGTTITLTGNWYSTPYTVQITVGSTPTLTNYVSQILLKAVAYEGINVSTTQSPYYSTAILSTPPSEISITGSSTITAQGKLTATSASATVNLLTNATLTYENIPLTQYSFNGIIVTPGYAAINGTTAMAYVIGALYNKTSDYVLSFAGSQEPMQVMNNNLTEVTTLAPFGLTLLAPSVPATETGTSPLQLEFFTVPSTSYIALVDFGLWGNLTSVTVSAYDTVNNKLSVNLGYFYGIVIPPSISTAPYNYQNFICPNNYVTVTIYDPDAVLDPYPSGSFTTSSLPLKYGNMNITGAVIFPGSSVYNPSGVFGYSNFNKGAAVTTFTYTAQSGPFSPVALTGNTNYLSQYADNNPTDNYYFIQTVNGMPVLMGGLSIVASPVSASLPSSTSSPGFMYLLPSAAQVPSPLPGMATPNYNLNIYITYKIDGATVGNNMINGLYVASQNTLIYVVPNGSFVGSNIKLTYTTTDYAVLHYFYSTGQYKVFKTVSVPNVTANLYFPSSTTPLYQLSVPLYLSEPYYGSPLPTYIGLGTNGTSLWNSPNYVLFGVSAVQQYLGFIKSISVTLSNGTTVVIPLTTSNMQTLFPQLVGQELQACNGTFQFGISITGLEKLLNLNVQQLNNSILSVTYHDYVTGETLTATTKLVALSTLSLVAKGAGVVEFLLTAYPYTGNITFAPPWFIAENVVKQPFMTYSDLQFAKTNPSAILSLSTVNITVVGLGGKASVYYNSTSGQTVITNIYGQTVATLSGNVLPTLTELAAGNGTFTGSLQFTIVPNNTVVQIPSSLTKTSFAVYTNGSLAIVLNGKAYSLGPAGLFLLPFVTYTGSAIGANATAIITVSDGVGTSTTQVPITAENFTPIRLAPFQVPAQVPLPNAPKLKYEYNGSIVITPQQQVLKIYVTSILPYPQEFQIQAFVYEASQFNVHTGSPTAAPVYFSYSAVRAYPALGIGTSVPNLLVYVQLQGISNLPAGKYVIVLSAVPFAGGPVLSEYPAQLIFTNVTLTQ
modifications: highly glycosylated
notes: S-layer protein SlaA of Sulfolobus acidocaldarius, locus saci2355, extracted from the S-layer of wild-type cells; Same preparation as m1 without the dye; it may also contain SlaB; also called unlabeled exogenous S-layer proteins; soluble S-layer proteins
binding result: binds
